# Experiment: soluble on expression in E. coli; label from the status in PepcDB or PDB records
row,Sequence,soluble on expression in E. coli
1,MFDRYDAGEQAVLVHIYFSQDKDMEDLQEFESLVSSAGVEAMQVITGSRKAPHPKYFVGEGKAVEIAEAVKATGAAVVLFDHALSPAQERNLERLCECRVIDRTGLILDIFAQRARTHEGKLQVELAQLRHLATRLVRGWTHLERQKGGIGLRGPGETQLETDRRLLRNRIVQIQSRLEKVEKQREQGRQSRIKADVPTVSLVGYTNAGKSTLFNQITEARVYAADQLFATLDPTLRRIDVADVGETVLADTVGFIRHLPHDLVAAFKATLQETRQATLLLHVVDAADVRVQENIEAVNTVLEEIDAHEIPTLMVMNKIDMLDDFEPRIDRDEENKPIRVWLSAQSGVGIPQLFQALTERLSGEVAQHTLRLPPQEGRLRSRFYQLQAIEKEWMEEDGSVSLQVRMPIVDWRRLCKQEPALIEYVILEHHHHHH,soluble
2,MSASAETVAPEGYRKLLDVQIFKDSPVVGWSGSGMGELETIGDTLPVDTTVTYNGLPTLRLNVQTTVQSGWWISLLTLRGWNTHDLSQYVENGYLEFDIKGKEGGEDFVIGFRDKVYERVYGLEIDVTTVISNYVTVTTDWQHVKIPLRDLMKINNGFDPSSVTCLVFSKRYADPFTVWFSDIKITSEDNEKSAPAIKLEHHHHHH,soluble
3,DVSQKIKDIDDQIQQLLLKQRHLLSKMASSMKSLKNCQKELISTQILQFEAQNMDVSMNDVIGFFNEREADLK,soluble
4,MQPKVVYGNAAVEGVNRWGWFMGHFITPEDDPRSTEMLEVKWAVHKAGDSRTEWAVNNQAATLSILIDGEFRLQFEDREILLSREGDYVLWCAGVPHWWVAESDCTILTVRWPSKPGDSVALPEESKS,soluble
5,IQQANEEAVTRIIQSKPILVGFDKAINVMPDMTETTILHAGPPITYENMCGPMKGAVQGALVFEGLAKDLADADRVARSGAITFSPCHEHDAVGSMAGVTSPNMYVHIIKNETYGNTAFTNLSEQLAKVLRFGANDQSVVDRLIWMRDVLGPLLHDAMTFCPEGIDLRLMLSQALHMGDECHNRNVAGSTLLVQALTPYMVQTDFSREQLKEVFEFLGSSDYFSGPTWMGAAKCALDAGHNVENSTIVTTMCRNGVEFGIRVSGIGGNHWFTGPAQRVIGPMFAGYTQEDAGLDMGDSAITETYGVGGFAMAAAPAIVPLVGGTVAEALNYSKEMLEITTKENPNVTIPVLDFMGIPTGIDVLKVLETGMLPVINTAIAHKEPGIGMIGAGLTNPPANVFNEALKALVATIN,not soluble
6,MNGLLKYSFPICFSLLALFACEDDGIDVDNIEVPAGFALSAGTATNFLTSSYAYDRSADWITGAYDKRFTRGDKLYDDIRTSSNGIGGGLGPVYAGYSCGSCHRNAGRTQPTLWSEGGSGSSGFSSMLVYISRKNGAFFQDYGRVLHDQAIYGVKPEGKLKVEYTYETFQFPDGETYELCKPNYSIYEWYADSIKPEDLFCTVRIPLRHVGMGQMMALDPTEIEALAAKSNYPEYGISGRCNYISERGMRSLGLSGNKAQHADLTVELGFSSDMGVTNSRYPEEICEGQAQVNQGSMMGLSYAQLDVSTEEMENVDLYMQSLSVPARRNVNNEQVIKGEQNFYKAKCHLCHVTTLHTKPRGSILLNGTRLPWLGSQTIHPYSDFLLHDMGSEIMGVGLNDNYVSGLARGNEWRTTPLWGIGLQETVNGHTYFLHDGRARNYIEAIMWHGGEGEASKNLFKKMSKEDRNALVAFLKSL,not soluble
7,MEGMDHGSHSMPMGASSDAPAQSRTPIPPVTDADRAAVYTSHSGHQVHDSAINSYFVADKLEWQDANDGSALAWDLSGWIGGDIDRLLLRSEGERTNGKTEEAEVQALWGHAVSSSWDVVAGARQDFKPGAPQTWAAFGLQGQAISDLDVEATAFIGDAGQTAARLEADYDLLLTNDLILQPTGELNFYGKNDPQRGNGSGLSTSEFGLRLRYEITPQFAPYVGVTWNRSYGKTADYAREDDEDVAQARLVVGLRLWFLEHHHHHH,not soluble
8,EVQLVESGGGLVQPGGSLRLSCAASGFTISSSSIHWVRQAPGKGLEWVAWVLPSVGFTDYADSVKGRFTISADTSKNTAYLQMNSLRAEDTAVYYCARRVCYNRLGVCAGGMDYWGQGTLVTVSSASTKGPSVFPLAPSSKSTSGGTAALGCLVKDYFPEPVTVSWNSGALTSGVHTFPAVLQSSGLYSLSSVVTVPSSSLGTQTYICNVNHKPSNTKVDKKVEPKSCDKTH,soluble
9,MQKPVMNPKQRIFIRGLGLPSSYVEAQKKRDEENAKN,not soluble
10,EFGEPAPANAESSSVAALKIGKVGNFGDCTGTLVADQWVLTARHCLESVNNEGTQARIGGKVYDADSWALSPVSDAGLLHLTEKVTDATPAKVSRDIPTPGQTGTLYGWSSSSSLARSGQLPMAKMVVKELLGGGPSQGTPSEGAPGGATPGEVAPGGAAPSETVPSESQAESIPAGTESIPADGAMMPMIQSAILDAHSVSGAGMQGGDSGGPFFVDGKLAGLATAGTANGDPDLPSPSAAITTLAGTADWIDGVTSGRDTKSVLTAENTPAPPKTIQTSADH,not soluble
11,MASNSSSCPTPGGGHLNGYPVPPYAFFFPPMLGGLSPPGALTTLQHQLPVSGYSTPSPATIETQSSSSEEIVPSPPSPPPLPRIYKPCFVCQDKSSGYHYGVSACEGCKGFFRRSIQKNMVYTCHRDKNCIINKVTRNRCQYCRLQKCFEVGMSKESVRNDRNKKKKEVPKPECSESYTLTPEVGELIEKVRKAHQETFPALCQLGKYTTNNSSEQRVSLDIDLWDKFSELSTKCIIKTVEFAKQLPGFTTLTIADQITLLKAACLDILILRICTRYTPEQDTMTFSDGLTLNRTQMHNAGFGPLTDLVFAFANQLLPLEMDDAETGLLSAICLICGDRQDLEQPDRVDMLQEPLLEALKVYVRKRRPSRPHMFPKMLMKITDLRSISAKGAERVITLKMEIPGSMPPLIQEMLENSEGLDTLSGQPGGGGRDGGGLAPPPGSCSPSLSPSSNRSSPATHSP,soluble
12,EHGWCGHLCPLGAAYGVIGRKSLLRVTAVRREDCTKCMDCFYVCPEPEVLRQPLKEGDRRVMVQNCISCGRCLDVCPEQVFEFKNRLNVKNID,not soluble
13,GADEEESTPCDNVETDQQTFACAAFNKQVAERELQSAYDELIERMRDQFGDEAGLMSRIEAAEKVWSQLRDADCKVETHAEQPGSNAYQIAWNSCIAQRSDERAEYLRSLGSQNSDEPAPED,soluble
14,SDKEYVGFAALPNQLHRKSVKKGFDFTLMVAGESGLGKSTLINSLFLTNLYEDRQVPEASARLTQTLAIERRGVEIEEGGVKVKLTLVDTPGFGDSVDCSDCWLPVVKFIEEQFEQYLRDESGLNRKNIQDSRVHCCLYFISPFGRGLRPLDVAFLRAVHEKVNIIPVIGKADALMPQETQALKQKIRDQLKEEEIHIYQFPECDSDEDEDFKRQDAEMKESIPFAVVGSCEVVRDGGNRPVRGRRYSWGTVEVENPHHCDFLNLRRMLVQTHLQDLKEVTHDLLYEGYRARCLQSLARPGARDRASRSKLSRQSATEIPLPMLPLADTEKLIREKDEELRRMQEMLEKMQAQMQQSQAQGEQSDAL,soluble
15,MIDTTVFQNKTAVYYTLGCKLNFSETSTIGKILREAGVRTARKGEKADICVVNTCSVTEMADKKCRQAIHRLVKQHPGAFVVVTGCYAQLKPGDVAKIKGVDVVLGAEQKGDLLQYLGDLHKHEEGEAFTTTTKDIRSFSPSCSRGDRTRFFLKVQDGCDYFCSYCTIPFARGRSRNGTVASMVEQARQAAAEGGKEIVLTGVNIGDFGKTTGETFFDLVKALDQVEGIERYRISSIEPNLLTDEIIEFVSRSRRFMPHFHIPLQSGCDEVLKLMRRRYDTALFASKVKKIKEVMPDAFIGVDVIVGTRGETEEYFEQAYQFISGLDVTQLHVFSYSERPGTQALKIDYVVSPEEKHQRSQRLLTLSDEKTRAFYTRHIGQTMQVLMEKSKAGTPMHGFTANYIRVEVENDESLDNQMINVRLGEFNEDMTALKGTILMNYEV,not soluble
16,MAHHHHHHMHMNNYHYNNYNVNFNPYNCGVVQESEKKNVGNVNNKVVLQKNYSNEYEMKYKEENKNNKINYLENLLNEPTAKEKKIKEEKTNILSIIEAPTVIEEMRIKKFQKKDDSVKIICPYLTKKVCQKHNKECNKVHFKKIISEHTDVSLGDCSYLDTCRHIETCKFVHYAVDKDDQQMNMNTQENLSQSKLSFSSNIKENVYGPQWIRCDLRNFDLSIFNKYVSVVMADPPWDIHMDLPYGTMTDNEMKLLPVQLIQDEGMIFLWVTGRAMELARECLQIWGYKRVEEILWVKTNHLQRIIRTGRTGHWLNHSKEHCLVGIKGNPIINRNIDCNVIVSEVRETSRKPDEIYSLIERLCPQNLKIELFGRPHNCRSNWITLGNQLNGVVLHHPQIKERYNKVATQFNLPLCEK,not soluble
17,MNIGVIILAAGEGKRFGGDKLLAKIDNTPIIMRTIRIYGDLEKIIIVGKYVNEMLPLLMDQIVIYNPFWNEGISTSLKLGLRFFKDYDAVLVALGDMPFVTKEDVNKIINTFKPNCKAVIPTHKGERGNPVLISKSLFNEIEKLRGDVGARVILNKIKIEELCFIECSEGVLIDIDKKEDLMRLRDFHPLEHHHHHH,soluble
18,MSLNNTPRYPQRVRNDLRFRELTVLRVERISAGFQRIVLGGEALDGFTSRGFDDHSKLFFPQPDAHFVPPTVTEEGIVWPEGPRPPSRDYTPLYDELRHELAIDFFIHDGGVASGWAMQAQPGDKLTVAGPRGSLVVPEDYAYQLYVCDESGMPALRRRLETLSKLAVKPQVSALVSVRDNACQDYLAHLDGFNIEWLAHDEQAVDARLAQMQIPADDYFIWITGEGKVVKNLSRRFEAEQYDPQRVRAAAYWHAKEGGSHHHHHH,soluble
19,MGSDKIHHHHHHVNPLLDSLQPYPFEKLRALFKDVTPNAGLAHISFGIGEPKHPTPALIRDAVVASLGGLSAYPATSGSPALRESIAKWVTQRYNLPPVDPATQVLPVSGSREALFSLAQTVLDPQKNAGGEPAIVLCPNPFYQIYEGAAILAGAQPYFVNSDPARNFACDYSAVPAEIWARTQLLYVCSPGNPTGAVLTLDDWRELFALSDRYGFVIASDECYSEIYFDEAKPPLGGLEAAHKLGRGFERLVMLSSLSKRSNVPGMRSGFVAGDAAILKDFLLYRTYHGAALSTVFQNASIAAWNDEAHVRENRAKYLQKFSTVTPMLAEVLDVRLPDAAFYLWADVSRTGLTDTVFAQRLYADYNVTVLPGSFLARTAHGVNPGRNFVRMALVADVDECTQGAQRIVDFCRALAG,not soluble
20,GPGSMASFDMLREDILDVFNVFDEEGTGSISMQELTRAIYTITGTRISRSDLRSLVQAVQEEMKEEAHARKTPLGVDLPPRANSLETSISPNADGENDAVDSSLFVAVVLKTLNRHTYEQELLFTFHLLEDKNYPGFITKDSLKKAAAEMEEHLTDQEVNEMFDKLVTGISSSAVDFTTFTSVLEAAKRMDD,soluble
21,MDKQVRNTTEIVRLAKQKSKKTREKVDKAISKFSIEGKVINFNSIAKEANVSKSWLYKEHDIRQRIESLRERQITANVVSKPKKSSRSEEILIKTLKRRVMELEKENKKLQNQIQKLYGDLYNKELEHHHHHH,soluble
22,VVIPSPCCMFFVSKRIPENRVVSYQLSSRSTCLKAGVIFTTKKGQQSCGDPKQEWVQRYMKNLDAKQKKASPR,soluble
23,MTNSNDIDETAATIDTARALLKSFGFEAQRHNVRSAVTLLALAGLKPGDHWADSTTPRLGVQKIMDWSGAYWAKPYATGSREDFRKKTLRQWVDNGFAVLNPDNLNIATNSQLNEYCLSDEAAQAIRSYGTDAFESALVDFLSKASDTVRARAEALRAAMISVDLADGDEFLLSPAGQNPLLKKMVEEFMPRFAPGAKVLYIGDTRGKHTRFEKRIFEETLGLTFDPHGRMPDLVLHDKVRKWLFLMEAVKSKGPFDEERHRTLRELFATPVAGLVFVNCFENREAMRQWLPELAWETEAWVADDPDHLIHLNGSRFLGPYER,soluble

# — the DeepSol protein solubility set
